Experimental data taken from paper PMC9966725, “Preclinical Evaluation of a Lead Specific Chelator (PSC) Conjugated to Radiopeptides for ^203Pb and ^212Pb-Based Theranostics” (Pharmaceutics, 2023).

Key:
[1] = after β decay of ^212Pb; cited from earlier work
Excerpt: Potential ambiguity in these predictions arises due to the nature of the ^212Pb decay series. The decay of ^212Pb to ^212Bi might lead to a decoupling of the progeny ^212Bi from the chelator, adding uncertainty to the biodistribution of radioactivity, especially the α-emitters (i.e., ^212Bi, ^212Po). Using particle and heavy ion transport code system (PHITS) modeling, we have shown that α-particles contribute to more than 90% of dose deposition in 10 µm diameter single cells and 1 cm diameter micro-metastasis, while the dose from β-particles becomes more significant ...

[2] = in vivo; parameters: species or system mice; details: female, athymic nude, mouse, total radioactivity; for tissue uptake at 1 h: iv, 74 kBq
Description: (§1) Biodistribution of [^212Pb]Pb-PSC-PEG-T and progeny ^212Bi^3+ was determined in two animal models, including female naïve CD-1Elite mice and athymic mice bearing AR42J tumor xenografts. SSTR2-positve AR42J cells were cultured in 10% Minimum Essential Medium (MEM) supplemented with 10% fetal bovine serum (FBS), 100 units mL^−1 penicillin, and 100 units mL^−1 streptomycin 37 °C in a humidified atmosphere (5% CO2). All animal studies were performed in accordance with the Guide for the Care and Use of Laboratory Animals, according to protocols approved by the University of Iowa Animal Care and Use Committee (protocol#1122453 approved on 16 February 2022). Xenograft of AR42J tumor was developed by subcutaneous (s.c.) injection of 1 × 10^6 cells at the left shoulder of female athymic nude mice. [^212Pb]Pb-PSC-PEG-T was radiolabeled and purified as described above, and kept at room temperature away from light for 3 h before injection, to allow progeny ^212Bi to approach equilibrium before injection. Upon assay, 74 kBq [^212Pb]Pb-PSC-PEG-T (peptide mass = 5–10 pmole) were injected via tail vein (n = 2–3). Animals were euthanized at designated time points (1, 5, 24 h for naïve CD-1 mice; 1, 4 h for AR42J-bearing mice). Organs of interest and tumors were collected, rinsed, and weighed. Radioactivity of ^212Pb and ^212Bi in each sample was measured on an automated gamma counter by 238 keV and 583 keV gamma peaks, respectively. ^212Bi was purified from the generator eluate on RE2 resin and collected in pH = 6 sodium acetate as described above. Biodistribution of free ^212Bi in normal organs was determined at 2 h post injection of 74 kBq ^212Bi in naïve female CD-1 Elite mice (n = 3). Radioactivity in samples was decay corrected and data were expressed as percent injected dose per gram of tissue (%ID/g). SPECT imaging of [^203Pb]Pb-PSC-PEG-T and [^212Pb]Pb-PSC-PEG-T in female athymic nude mice bearing AR42J xenograft (n = 2) was conducted on Bioemtech Gamma-Eye Imaging system (Bioemtech, Athens, Greece) with 30–500 keV dynamic range and 1.9 mm spatial resolution. Whole body 2D-SPECT imaging of [^203Pb]Pb-PSC-PEG-T and [^212Pb]Pb-PSC-PEG-T were collected at 3 h and 24 h (n = 2) post injection of 1.8 MBq [^203Pb]Pb-PSC-PEG-T (52 MBq nmole^−1) and 3.7 MBq [^212Pb]Pb-PSC-PEG-T (20 MBq nmole^−1). SPECT images were generated by acquiring ten 30 s projections. Imaging data were reconstructed and normalized to percent of injected dose (%ID) in tumor and kidneys based on region of interest (ROI) analysis on VISUAL-Eyes software (Bioemtech, Athens, Greece). Animals were euthanized after conclusion of the study at 24 h post injection. Tumor xenografts and organs of interest were collected and weighed. Radioactivity of ^203Pb or ^212Pb was determined on automated gamma counter and normalized to %ID/g.

[3] = Radiochemical stability of radiometal complex in saline, radio-iTLC; type: physicochemical; details: for radiochemical purity of progeny: progeny of 37 MBq mL^-1 [^212Pb]Pb-PSC-PEG-T, 24 h in saline at room temperature; for radiochemical purity: single species, 7.4 MBq mL^-1, n = 2
Description: (§2) Using [^203Pb]Pb-PSC-PEG-T surrogate, radiochemical stability of [^203Pb]Pb-PSC-PEG-T in saline was monitored for 72 h. Similarly, single species of [^212Bi]Bi-PSC-PEG-T in saline were also monitored for 5 h (five half-lives of ^212Bi). [^203Pb]Pb-PSC-PEG-T and [^212Bi]Bi-PSC-PEG-T were radiolabeled and purified on Sep-Pak® C18 SPE columns as previously described. Next, 7.4 MBq mL^−1 of purified [^203Pb]Pb-PSC-PEG-T and [^212Bi]Bi-PSC-PEG-T were stored in saline supplemented with 5% EtOH and 1 mg mL^−1 sodium ascorbate for 72 h and 5 h, respectively, followed by analysis of radiochemical purity by radio-iTLC method. Then, radiochemical stability of [^212Pb]Pb-PSC-PEG-T and progeny [^212Bi]Bi-PSC-PEG-T were determined by radio-iTLC after storage of 37 MBq mL^−1 radiolabeled [^212Pb]Pb-PSC-PEG-T in saline for 24 h, and further confirmed by radio-HPLC analysis. In human serum, radiochemical stability of [^212Pb]Pb-PSC-PEG-T and progeny [^212Bi]Bi-PSC-PEG-T were determined after incubation of 3.7 MBq [^212Pb]Pb-PSC-PEG-T in 1 mL human serum at 37 °C for 24 h. In addition, metabolic stability of Pb-PSC-PEG-T radiopeptide in serum was determined by radio-HPLC after incubating [^203Pb]Pb-PSC-PEG-T surrogate in human serum for 55 h (five half-lives of ^212Pb). Following the incubation, serum protein was precipitated in ice-cold methanol (1:1.5 v/v) for 10 min, followed by centrifugation at 10,000× g for 10 min. The supernatant was collected and analyzed on radio-HPLC.
In radio-iTLC analysis, 0.1 M NaOAc with 1 mM DTPA was used as mobile phase for ^203Pb, ^212Pb, ^212Bi. Citric acid (0.1 M) was used as mobile phase for ^68Ga. Upon radio-iTLC analysis, 2 µL aliquot sample was spotted on the radio-iTLC strips (2 × 10 cm) and developed in the mobile phase. Radioactivity of ^203Pb and ^212Pb was measured on NaI(Tl) gamma spectroscope using 279 keV and 238 keV gamma peaks, respectively. Radioactivity of ^212Bi on radio-iTLC was measured on the Ludlum Model 3030 α-particle counter. Radio-HPLC analysis was conducted on Agilent 1260 (Agilent, Santa Clara, CA, USA). Binary mobile phases were applied to run 5–60% phase B (acetonitrile) over phase A (0.1% TFA in water) over 10 min on ZORBAX RR Eclipse XDB-C18 column (4.6 × 150 mm, 5 µm). Radioactivity of ^203Pb was measured on flow-through 105S-1 single channel radiation detector (Corroll & Ramsey, Fort Collins, CO, USA). To measure ^212Pb and ^212Bi activity on radio-HPLC, eluate was collected every 10 s on a HPLC fraction collector. Radioactivity of ^212Pb and ^212Bi in each collected eluate was measured on Cobra II automated gamma counter using 238 keV and 583 keV gamma peaks immediately after collection.

[4] = Stability of radiopeptide in saline, radio-HPLC; type: physicochemical; details: 24 h storage in saline, C18, fractions counted on gamma counter
Description: as §2, with “Following the incubation, serum protein was precipitated in ice-cold methanol (1:1.5 v/v) for 10 min, followed by centrifugation at 10,000× g for 10 min.” left out, “radio-HPLC. […]” for “radio-HPLC.”

[5] = In vivo biodistribution in naïve tumor-free CD-1 Elite mice; details: female, mouse, iv, 74 kBq
Description: as §1

[6] = tested on: SSTR2-positive AR42J xenografts; assay: in vivo; parameters: species or system mice; details: female, athymic nude, mouse, iv, 74 kBq, 1 h
Description: as §1

[7] = total radioactivity, accumulation in kidneys
[8] = total radioactivity, accumulation in pancreas

## O=C(O)CN1CCN(CC(=O)O)CCN(CC(=O)O)CCN(CC(=O)O)CC1 [DOTA, 1,4,7,10-tetraazacyclododecane-1,4,7,10-tetraacetic acid]
[1]
  ^212Bi^3+ released from chelator: approximately 36%

## C[C@@H](O)[C@@H]1NC(=O)[C@H](CCCCN)NC(=O)[C@@H](Cc2c[nH]c3ccccc23)NC(=O)[C@H](Cc2ccc(O)cc2)NC(=O)[C@@H](NC(=O)[C@@H](Cc2ccccc2)NC(=O)CCOCCOCCNC(=O)CN2CCN(CC(=O)O)CCN(CC(N)=O)CCN(CC(=O)O)CC2)CSSC[C@@H](C(=O)N[C@H](CO)[C@@H](C)O)NC1=O [[^203Pb]Pb-PSC-PEG-T, metal not drawn]
[2]; activity in lungs
  tissue uptake at 24 h: 0.6 %ID/g
[2]; kidneys uptake (SPECT ROI)
  tissue uptake dose at 3 h: 8.3 %ID
  tissue uptake dose at 24 h: 0.8 %ID
[2]; tumor uptake (SPECT ROI)
  tissue uptake dose at 3 h: 1.8 %ID
  tissue uptake dose at 24 h: 1.5 %ID

## C[C@@H](O)[C@@H]1NC(=O)[C@H](CCCCN)NC(=O)[C@@H](Cc2c[nH]c3ccccc23)NC(=O)[C@H](Cc2ccc(O)cc2)NC(=O)[C@@H](NC(=O)[C@@H](Cc2ccccc2)NC(=O)CCOCCOCCNC(=O)CN2CCN(CC(=O)O)CCN(CC(N)=O)CCN(CC(=O)O)CC2)CSSC[C@@H](C(=O)N[C@H](CO)[C@@H](C)O)NC1=O [[^203Pb]Pb-PSC-PEG-T] [metal not drawn]
[3]; 72 h storage in saline with 5% EtOH and 1 mg mL^-1 sodium ascorbate, 7.4 MBq mL^-1, 1 and 5 µM precursor, n = 2
  free ^203Pb: less than 1%
[3]; 72 h storage in saline with 5% EtOH and 1 mg mL^-1 sodium ascorbate, 7.4 MBq mL^-1, regardless of PSC-PEG-T precursor concentration (1 and 5 µM), n = 2
  ^203Pb remained in PSC-PEG-T: More than 99%

## C[C@@H](O)[C@@H]1NC(=O)[C@H](CCCCN)NC(=O)[C@@H](Cc2c[nH]c3ccccc23)NC(=O)[C@H](Cc2ccc(O)cc2)NC(=O)[C@@H](NC(=O)[C@@H](Cc2ccccc2)NC(=O)CCOCCOCCNC(=O)CN2CCN(CC(=O)O)CCN(CC(N)=O)CCN(CC(=O)O)CC2)CSSC[C@@H](C(=O)N[C@H](CO)[C@@H](C)O)NC1=O [[^212Bi]Bi-PSC-PEG-T, metal not drawn]
[2]; accumulation in bones
  tissue uptake at 1 h: 2.5 %ID/g
[2]; accumulation in kidneys
  tissue uptake at 1 h: 38.1 %ID/g

## C[C@@H](O)[C@@H]1NC(=O)[C@H](CCCCN)NC(=O)[C@@H](Cc2c[nH]c3ccccc23)NC(=O)[C@H](Cc2ccc(O)cc2)NC(=O)[C@@H](NC(=O)[C@@H](Cc2ccccc2)NC(=O)CCOCCOCCNC(=O)CN2CCN(CC(=O)O)CCN(CC(N)=O)CCN(CC(=O)O)CC2)CSSC[C@@H](C(=O)N[C@H](CO)[C@@H](C)O)NC1=O [[^212Bi]Bi-PSC-PEG-T] [metal not drawn]
[3]; 1 µM PSC-PEG-T
  radiochemical purity of progeny: 91.8%
[3]; 3 µM PSC-PEG-T
  radiochemical purity of progeny: 94.8%
[3]; 5 µM PSC-PEG-T
  radiochemical purity of progeny: 97.1%
[3]; 1 h incubation in saline (5% EtOH, 1 mg mL^-1 sodium ascorbate), 1 µM PSC-PEG-T precursor
  radiochemical purity: 94.1%
[3]; 2 h incubation in saline (5% EtOH, 1 mg mL^-1 sodium ascorbate), 1 µM PSC-PEG-T precursor
  radiochemical purity: 96.1%
[3]; 3 h incubation in saline (5% EtOH, 1 mg mL^-1 sodium ascorbate), 1 µM PSC-PEG-T precursor
  radiochemical purity: 92.4%
[3]; 5 h incubation in saline (5% EtOH, 1 mg mL^-1 sodium ascorbate), 1 µM PSC-PEG-T precursor
  radiochemical purity: 92.3%
[3]; 5 h incubation in saline (5% EtOH, 1 mg mL^-1 sodium ascorbate), 5 µM PSC-PEG-T precursor
  radiochemical purity: > 98%
[4]
  radiochemical purity (radiometal remained incorporated as radiopeptide): > 95%
[5]; 1 h
  accumulation in kidneys: 45.9 ± 3.7 %ID/g
  accumulation in pancreas: 7.3 %ID/g
  activity remained in blood: less than 0.2 %ID/g
[5]; 5 h
  accumulation in kidneys: 29.8 %ID/g
  accumulation in pancreas: 3.5 %ID/g
[5]; 24 h
  residual activity in kidneys: 3.1 ± 1.4 %ID/g
[6]
  accumulation in adrenal glands: 8.1 %ID/g
  accumulation in liver: 2.1 %ID/g
  accumulation in spleen: 1.4 %ID/g

## C[C@@H](O)[C@@H]1NC(=O)[C@H](CCCCN)NC(=O)[C@@H](Cc2c[nH]c3ccccc23)NC(=O)[C@H](Cc2ccc(O)cc2)NC(=O)[C@@H](NC(=O)[C@@H](Cc2ccccc2)NC(=O)CCOCCOCCNC(=O)CN2CCN(CC(=O)O)CCN(CC(N)=O)CCN(CC(=O)O)CC2)CSSC[C@@H](C(=O)N[C@H](CO)[C@@H](C)O)NC1=O [[^212Pb]Pb-PSC-PEG-T, metal not drawn]
[5]; [7]
  tissue uptake at 1 h: 47.1 ± 7.9 %ID/g
  tissue uptake at 5 h: 26.6 %ID/g
[5]; [8]
  tissue uptake at 1 h: 5.2 %ID/g
  tissue uptake at 5 h: 2 %ID/g
[5]; total radioactivity, activity remained in blood
  tissue uptake at 1 h: < 0.2 %ID/g
[5]; total radioactivity, residual activity in kidneys
  tissue uptake at 24 h: 2.7 ± 1.2 %ID/g
